Measured values published in article PMC9242963, “FFF-based high-throughput sequence shortlisting to support the development of aptamer-based analytical strategies”.

Target: lysozyme (UniProt P00698 19-147)
Experiment: AF4-UV (asymmetrical flow field-flow fractionation); concentration-dependent; among highest affinity with A80; PBS-Mg2+ buffer (also mobile phase; composition, pH and temperature not given in the material); 10 uL of 5 uM aptamer + 10 uL of 5, 10, 25 or 50 uM protein (1:1 to 1:10); detection at 260 nm; n = 3
Settings: protein: commercial; label: none

Chain of lysozyme (P00698 19-147): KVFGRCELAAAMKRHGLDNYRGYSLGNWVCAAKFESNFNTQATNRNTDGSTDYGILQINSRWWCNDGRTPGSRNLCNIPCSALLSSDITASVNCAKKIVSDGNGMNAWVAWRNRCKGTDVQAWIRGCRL

B1: A40 (ssDNA)
DNA: GCAGCTAAGCAGGCGGCTCACAAAACCATTCGCATGCGGC
- binding result: binds
